Source: patent US20250136695A1
Blank lines part the entries; values can stand above or below the substance they belong to.

Experiments:
[1] = target: PDL1 expressed on recombinant CHO cells (CHO-K1/PDL1; aAPC CHO-PDL1) (UniProt Q9NZQ7)
[2] = target: PDL1 (Fc-cut) antigen (UniProt Q9NZQ7); test: ELISA on coated PDL1 (Fc-cut), VHH secondary antibody; PBS blank 0.181 / 0.212
[3] = target: PDL1 (Fc-cut) antigen (UniProt Q9NZQ7); test: ELISA on coated PDL1 (Fc-cut), IgG (H+L) secondary antibody; PBS blank 0.121 / 0.102

PDL1 (Fc-cut) antigen, sequence (Q9NZQ7 19-238 limits assumed): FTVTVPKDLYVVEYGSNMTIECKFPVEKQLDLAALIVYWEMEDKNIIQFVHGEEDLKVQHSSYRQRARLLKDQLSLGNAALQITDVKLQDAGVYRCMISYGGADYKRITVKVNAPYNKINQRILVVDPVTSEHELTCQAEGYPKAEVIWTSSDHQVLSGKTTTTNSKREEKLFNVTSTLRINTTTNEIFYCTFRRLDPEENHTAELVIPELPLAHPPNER
PDL1 expressed on recombinant CHO cells (CHO-K1/PDL1; aAPC CHO-PDL1), sequence (Q9NZQ7 19-290 limits assumed): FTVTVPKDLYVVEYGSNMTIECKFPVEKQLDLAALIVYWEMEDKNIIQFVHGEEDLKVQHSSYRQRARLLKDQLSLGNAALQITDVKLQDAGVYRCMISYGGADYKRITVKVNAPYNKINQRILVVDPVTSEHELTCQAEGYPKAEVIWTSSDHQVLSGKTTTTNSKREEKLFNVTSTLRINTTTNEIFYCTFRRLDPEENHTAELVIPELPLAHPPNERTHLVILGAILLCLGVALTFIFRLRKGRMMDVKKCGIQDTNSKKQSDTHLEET

EC50 of the PD1/PDL1 Block Assay (luciferase fold of induction, Jurkat-PD-1-NFAT-Luc + aAPC CHO-PDL1) [1]: 6.04 µg/mL
Substance: Atezolizumab (antibody)

OD450, serum 1:1K, well 1 of 2 [2]: 0.176
OD450, serum 1:1K, well 2 of 2 [2]: 0.166
OD450, serum 1:2K, well 1 of 2 [2]: 0.194
OD450, serum 1:2K, well 2 of 2 [2]: 0.213
OD450, serum 1:4K, well 1 of 2 [2]: 0.207
OD450, serum 1:4K, well 2 of 2 [2]: 0.236
OD450, serum 1:8K, well 1 of 2 [2]: 0.205
OD450, serum 1:8K, well 2 of 2 [2]: 0.236
OD450, serum 1:16K, well 1 of 2 [2]: 0.232
OD450, serum 1:16K, well 2 of 2 [2]: 0.249
OD450, serum 1:32K, well 1 of 2 [2]: 0.224
OD450, serum 1:32K, well 2 of 2 [2]: 0.253
OD450, serum 1:64K, well 1 of 2 [2]: 0.201
OD450, serum 1:64K, well 2 of 2 [2]: 0.224
OD450, serum 1:1K, well 1 of 2 [3]: 0.189
OD450, serum 1:1K, well 2 of 2 [3]: 0.176
OD450, serum 1:2K, well 1 of 2 [3]: 0.145
OD450, serum 1:2K, well 2 of 2 [3]: 0.159
OD450, serum 1:4K, well 1 of 2 [3]: 0.124
OD450, serum 1:4K, well 2 of 2 [3]: 0.12
OD450, serum 1:8K, well 1 of 2 [3]: 0.107
OD450, serum 1:8K, well 2 of 2 [3]: 0.116
OD450, serum 1:16K, well 1 of 2 [3]: 0.118
OD450, serum 1:16K, well 2 of 2 [3]: 0.12
OD450, serum 1:32K, well 1 of 2 [3]: 0.125
OD450, serum 1:32K, well 2 of 2 [3]: 0.118
OD450, serum 1:64K, well 1 of 2 [3]: 0.141
OD450, serum 1:64K, well 2 of 2 [3]: 0.115
Substance: Unimmunized serum
